Results on 3 molecules are retold here after US20180071366A1.

Numbered stars: 1 amine (or outer) side, 2 acyl side, 3 side chain; on linkers, the order of the positions; unused ones are H or OH. Bridge positions count the residues as written; N and C are the ends. Square brackets hold non-standard residues; d marks the D form. * marks the point of attachment. C20 diacid = O=C(O)CCCCCCCCCCCCCCCCCCC(=O)*; γGlu = O=C(O)[C@H](CCC(=O)[*:2])N[*:1]; Hyp = O=C(O)[C@@H]1C[C@@H](O)CN1; NMeI = CC[C@H](C)[C@H](NC)C(=O)O; Aad = N[C@@H](CCCC(=O)O)C(=O)O; Orn = NCCC[C@H](N)C(=O)O; Dab = NCC[C@H](N)C(=O)O; Dap = NC[C@H](N)C(=O)O; Sar = CNCC(=O)O

In assay [1] the target is recombinant human amylin 3 receptor (hAMYR3) (human), P30988. Nature of the assay: cell-based or functional assay.
In assay [2] the target is recombinant human calcitonin receptor (hCT-R) (human), P30988. Nature of the assay: cell-based or functional assay.
recombinant human calcitonin receptor (hCT-R) (human), P30988, sequence (P30988 25-474): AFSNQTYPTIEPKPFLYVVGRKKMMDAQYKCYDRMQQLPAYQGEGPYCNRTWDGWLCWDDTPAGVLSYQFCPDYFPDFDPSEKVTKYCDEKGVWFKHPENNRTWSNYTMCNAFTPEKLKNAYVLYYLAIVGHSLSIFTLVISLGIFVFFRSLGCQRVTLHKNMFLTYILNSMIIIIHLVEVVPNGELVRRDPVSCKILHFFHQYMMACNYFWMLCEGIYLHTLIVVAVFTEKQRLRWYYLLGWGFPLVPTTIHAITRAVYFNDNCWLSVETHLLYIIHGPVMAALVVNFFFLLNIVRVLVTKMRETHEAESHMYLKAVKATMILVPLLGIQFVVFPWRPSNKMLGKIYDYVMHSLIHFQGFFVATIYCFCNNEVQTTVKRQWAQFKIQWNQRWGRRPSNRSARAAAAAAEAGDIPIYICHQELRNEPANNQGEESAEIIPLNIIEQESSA

recombinant human amylin 3 receptor (hAMYR3) (human), P30988, sequence (P30988 25-474, chain 1 of 2): as the sequence (P30988 25-474) above
recombinant human amylin 3 receptor (hAMYR3) (human), P30988, sequence (O60896 24-148, chain 2 of 2, further chain): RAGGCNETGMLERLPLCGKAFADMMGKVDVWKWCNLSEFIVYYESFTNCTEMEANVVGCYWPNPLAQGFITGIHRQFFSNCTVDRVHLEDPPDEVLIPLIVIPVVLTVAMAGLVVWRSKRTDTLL

B1: Compound 47 (peptide)
peptide: {C20 diacid-γGlu}-R[Orn]GTATDATERLAHFLQRSSF[Sar]A[NMeI]LSSTEVGSNT[Hyp]-NH2
modifications: lactam 2-7
SMILES: CC[C@H](C)[C@@H](C(=O)N[C@@H](CC(C)C)C(=O)N[C@@H](CO)C(=O)N[C@@H](CO)C(=O)N[C@H](C(=O)N[C@@H](CCC(=O)O)C(=O)N[C@H](C(=O)NCC(=O)N[C@@H](CO)C(=O)N[C@@H](CC(N)=O)C(=O)N[C@H](C(=O)N1C[C@H](O)C[C@H]1C(N)=O)[C@@H](C)O)C(C)C)[C@@H](C)O)N(C)C(=O)[C@H](C)NC(=O)CN(C)C(=O)[C@H](Cc1ccccc1)NC(=O)[C@H](CO)NC(=O)[C@H](CO)NC(=O)[C@H](CCCNC(=N)N)NC(=O)[C@H](CCC(N)=O)NC(=O)[C@H](CC(C)C)NC(=O)[C@H](Cc1ccccc1)NC(=O)[C@H](Cc1c[nH]cn1)NC(=O)[C@H](C)NC(=O)[C@H](CC(C)C)NC(=O)[C@H](CCCNC(=N)N)NC(=O)[C@H](CCC(=O)O)NC(=O)[C@@H](NC(=O)[C@H](C)NC(=O)[C@@H]1CC(=O)NCCC[C@H](NC(=O)[C@H](CCCNC(=N)N)NC(=O)CC[C@H](NC(=O)CCCCCCCCCCCCCCCCCCC(=O)O)C(=O)O)C(=O)NCC(=O)N[C@@H]([C@@H](C)O)C(=O)N[C@@H](C)C(=O)N[C@@H]([C@@H](C)O)C(=O)N1)[C@@H](C)O
With B1, in assay [1], the hAMYR3 EC50 [nM] (cAMP formation, 1321N1 cells expressing hAMYR3) was determined as 7.7 nM. Further, the hCT-R EC50 [nM] (cAMP formation, 1321N1 cells expressing hCT-R) in assay [2] was found to be 10.8 nM.

B2: Compound 49 (peptide)
peptide: {C20 diacid-γGlu}-R[Dab]GTATEATERLAHFLQRSSF[Sar]A[NMeI]LSSTEVGSNT[Hyp]-NH2
modifications: lactam 2-7
SMILES: CC[C@H](C)[C@@H](C(=O)N[C@@H](CC(C)C)C(=O)N[C@@H](CO)C(=O)N[C@@H](CO)C(=O)N[C@H](C(=O)N[C@@H](CCC(=O)O)C(=O)N[C@H](C(=O)NCC(=O)N[C@@H](CO)C(=O)N[C@@H](CC(N)=O)C(=O)N[C@H](C(=O)N1C[C@H](O)C[C@H]1C(N)=O)[C@@H](C)O)C(C)C)[C@@H](C)O)N(C)C(=O)[C@H](C)NC(=O)CN(C)C(=O)[C@H](Cc1ccccc1)NC(=O)[C@H](CO)NC(=O)[C@H](CO)NC(=O)[C@H](CCCNC(=N)N)NC(=O)[C@H](CCC(N)=O)NC(=O)[C@H](CC(C)C)NC(=O)[C@H](Cc1ccccc1)NC(=O)[C@H](Cc1c[nH]cn1)NC(=O)[C@H](C)NC(=O)[C@H](CC(C)C)NC(=O)[C@H](CCCNC(=N)N)NC(=O)[C@H](CCC(=O)O)NC(=O)[C@@H](NC(=O)[C@H](C)NC(=O)[C@@H]1CCC(=O)NCC[C@H](NC(=O)[C@H](CCCNC(=N)N)NC(=O)CC[C@H](NC(=O)CCCCCCCCCCCCCCCCCCC(=O)O)C(=O)O)C(=O)NCC(=O)N[C@@H]([C@@H](C)O)C(=O)N[C@@H](C)C(=O)N[C@@H]([C@@H](C)O)C(=O)N1)[C@@H](C)O
With B2, the hAMYR3 EC50 [nM] (cAMP formation, 1321N1 cells expressing hAMYR3) in assay [1] turned out to be 0.442 nM. Moreover, in assay [2], the hCT-R EC50 [nM] (cAMP formation, 1321N1 cells expressing hCT-R) was found to be 1.04 nM.

B3: Compound 48 (peptide)
peptide: {C20 diacid-γGlu}-R[Dap]GTAT[Aad]ATERLAHFLQRSSF[Sar]A[NMeI]LSSTEVGSNT[Hyp]-NH2
modifications: lactam 2-7
SMILES: CC[C@H](C)[C@@H](C(=O)N[C@@H](CC(C)C)C(=O)N[C@@H](CO)C(=O)N[C@@H](CO)C(=O)N[C@H](C(=O)N[C@@H](CCC(=O)O)C(=O)N[C@H](C(=O)NCC(=O)N[C@@H](CO)C(=O)N[C@@H](CC(N)=O)C(=O)N[C@H](C(=O)N1C[C@H](O)C[C@H]1C(N)=O)[C@@H](C)O)C(C)C)[C@@H](C)O)N(C)C(=O)[C@H](C)NC(=O)CN(C)C(=O)[C@H](Cc1ccccc1)NC(=O)[C@H](CO)NC(=O)[C@H](CO)NC(=O)[C@H](CCCNC(=N)N)NC(=O)[C@H](CCC(N)=O)NC(=O)[C@H](CC(C)C)NC(=O)[C@H](Cc1ccccc1)NC(=O)[C@H](Cc1c[nH]cn1)NC(=O)[C@H](C)NC(=O)[C@H](CC(C)C)NC(=O)[C@H](CCCNC(=N)N)NC(=O)[C@H](CCC(=O)O)NC(=O)[C@@H](NC(=O)[C@H](C)NC(=O)[C@@H]1CCCC(=O)NC[C@H](NC(=O)[C@H](CCCNC(=N)N)NC(=O)CC[C@H](NC(=O)CCCCCCCCCCCCCCCCCCC(=O)O)C(=O)O)C(=O)NCC(=O)N[C@@H]([C@@H](C)O)C(=O)N[C@@H](C)C(=O)N[C@@H]([C@@H](C)O)C(=O)N1)[C@@H](C)O
Consider B3, for which the hAMYR3 EC50 [nM] (cAMP formation, 1321N1 cells expressing hAMYR3) in assay [1] was found to be 0.02 nM. For the same molecule, the hCT-R EC50 [nM] (cAMP formation, 1321N1 cells expressing hCT-R) in assay [2] turned out to be 0.107 nM.
